Experimental findings from PMC5473807, “Distribution and kinetics of the Kv1.3-blocking peptide HsTX1[R14A] in experimental rats” (Scientific Reports, 2017) are described below.

Where two headings read alike, the source gives them in different places.

Series [1] can be described thus: Tolerability in the animal experiments. It is filed as in vivo, rat. The note with it: rats, injections of up to 0.1 mg peptide/kg body weight, also anesthetised animals.
The nature of series [2]: Metabolite analysis by radio-TLC. It is filed as in vivo. The note with it: rat, i.v., one rat. The method, then: (§1) The analysis of [^64Cu]Cu-NOTA-HsTX1[R14A] degradation was analysed in one rat after single intravenous injection. The gas-anaesthetised (8% desflurane, 30% oxygen, air) rat was prepared on a heating bed for the blood sampling. A needle catheter was inserted in a tail vein and fixed for the injection of the radiotracer and supplementation of the withdrawn volume by E-153 (electrolyte infusion solution). A small incision on the right hind limb was made and a small superficial artery was exposed. A thin tube (polyethylene, 0.3 mm inner and 0.6 mm outer diameter) was inserted, moved to the femoral artery and fixed. Arterial blood samples were collected at 1, 3, 5, 10, 20, 30, 120 min p.i of the [^64Cu]Cu-NOTA-HsTX1[R14A]. After the end of experiment the anaesthetised animals were euthanised by infusion of KCl solution. For the differentiation of the activity distribution in the blood compartments (Fig. 3b) were blood samples centrifuged (3 min at 14,000 × g) to obtain the plasma (plasma total and blood cells in the precipitate). One kidney was homogenised with PBS (30% w/v) and then centrifuged as described for the blood samples. Urine was treated in analogy. All the supernatants from blood, kidney and urine samples were mixed with equal volume of MeCN to precipitate the protein fraction. The samples were again centrifuged (3 min at 14,000 × g), resulting in the precipitate the protein bound fraction (plasma proteins) and the supernatants (e.g. plasma water fraction) were analysed by radio-TLC with RP18 aluminium foil, MeCN/0.1% TFA mixed with H2O/0.1% TFA (v/v 1:1). The TLC plates were measured by radioluminography as described above. Aliquots of the whole blood samples and of all supernatants were measured for the ^64Cu activity concentration in a well counter.

A short description of series [3]: Stability of the 64Cu complex against EDTA. The series is classed as physicochemical. The note with it: 0.1 M aqueous EDTA solution, radio-TLC on iTLC-SA plates. Here is the method:
The radiolabelling yield and stability of ^64Cu-labelled peptide conjugate were monitored with radio-TLC (thin layer chromatography). Thin layer chromatograms were scanned by using a thin layer analyser (Rita Star, Raytest, Germany). The purity of the radiolabelled peptide was assayed using analytical RP-HPLC. Radio-HPLC was performed on a Knauer Smartline System fitted with an activity detector (Ramona Star, Raytest, Germany) using an Aqua C18 column (Phenomenex, 4.6 mm × 250 mm, 5 µm, 125 Å) with a gradient eluent of H2O + 0.05% TFA (A) and acetonitrile + 0.05% TFA (B); in 20 min 0–60% of B, 10 min 60–95% of B, 1 mL/min.
^64Cu-NOTA-HsTX1[R14A] was prepared by incubating ~1.2–24 nmol (5–100 µg) of NOTA-HsTX1[R14A]/100 µL (1 mg/mL H2O stock solution) with ^64CuCl2 (~35–55 MBq) dissolved in 0.2 mL of 0.1 M 2-(N-morpholino)ethansulfonic acid (MES)/NaOH buffer (pH 6.0) at 37 °C for 30 min. Formation of the ^64Cu^II complex was verified by radio-TLC on iTLC-SA plates (instant TLC medium impregnated with […], Agilent Technology) using H2O + 0.1% HCOOH as mobile phase (^64Cu(HCOO)2, R f = 0.4, ^64Cu-NOTA-peptide, R f = 0). The stability of the ^64Cu^II formed was assessed in the presence of 0.1 M EDTA solution. Radio-TLC was performed with iTLC-SA plates (Agilent Technology) using 0.1 M aqueous EDTA solution [(^64Cu]Cu-NOTA-peptide, R f = 0, ^64Cu-EDTA, R f = 0.9).

Series [4] is described as follows: Blood clearance kinetics, arterial blood and PET. It is filed as in vivo. The note with it: whole blood, rat, read-out: blood clearance half-life corrected for the metabolites. Here is the method:
The procedures are described in detail elsewhere, [34], [35]. Rats were anesthetised using 9% ± 1% desflurane in 30% oxygen and placed on a heat mat. The animals were kept warm under anesthesia until the end of the scan with a total duration of 4 h. The anesthetised animals were localised in a prone position in the axial direction of the scanner. A needle catheter was installed in a lateral tail vein or subcutaneously in the neck for injection using a syringe pump. PET studies were performed with the dedicated small animal PETs NanoPET/CT (Mediso, Budapest, Hungary) and microPET^(R) P4 (Siemens Medical Solutions, Erlangen, Germany). […] Three-dimensional regions of interest (ROI) were determined for subsequent data analysis. The standardised uptake values (SUV, g/mL) and standardised uptake ratios (SUR, as ratio of the SUVs of the tissue of interest and the blood SUV, derived from a region over the caudal arteria abdominalis and vena cava) were used to quantify the activity uptake and kinetics.
The analysis of [^64Cu]Cu-NOTA-HsTX1[R14A] degradation was analysed in one rat after single intravenous injection. […] The samples were again centrifuged (3 min at 14,000 × g), resulting in the precipitate the protein bound fraction (plasma proteins) and the supernatants (e.g. plasma water fraction) were analysed by radio-TLC with RP18 aluminium foil, MeCN/0.1% TFA mixed with H2O/0.1% TFA (v/v 1:1). […]

Series [5] can be described thus: Distribution in the blood compartments. The series is classed as in vivo. The note with it: rat, i.v., 0-4 h. Here is the method:
as §1

Broadly, the half-life is how long it takes for the measured level to halve. Regarding `CSCC[C@@H]1NC(=O)[C@@H]2CSSC[C@H](NC(=O)[C@H](CO)NC(=O)[C@H](C)NC(=O)COCCOCCNC(=O)CN3CCN(CC(=O)O)CCN(CC(=O)O)CC3)C(=O)N[C@@H](CCCNC(=N)N)C(=O)N[C@@H]([C@@H](C)O)C(=O)N3CCC[C@H]3C(=O)N[C@@H](CCCCN)C(=O)N[C@@H](CC(=O)O)C(=O)N[C@H]3CSSC[C@H](NC(=O)[C@H](CCCCN)NC(=O)[C@H](CCCNC(=N)N)NC(=O)[C@H](CC(N)=O)NC1=O)C(=O)N[C@@H](CCCCN)C(=O)N[C@H]1CSSC[C@H](NC(=O)[C@@H]4CCCN4C(=O)[C@H](CC(=O)O)NC(=O)[C@H](C)NC3=O)C(=O)N[C@@H](C)C(=O)N[C@@H](CCCCN)C(=O)N[C@@H](CCC(=O)O)C(=O)N[C@@H]([C@@H](C)O)C(=O)NCC(=O)N[C@@H](CSSC[C@@H](C(N)=O)NC(=O)[C@H](CCCNC(=N)N)NC(=O)[C@H](CC(N)=O)NC1=O)C(=O)N1CCC[C@H]1C(=O)N[C@@H](Cc1ccc(O)cc1)C(=O)NCC(=O)N[C@@H](CCCCN)C(=O)N2` [[^64Cu]Cu-NOTA-HsTX1[R14A], metal not drawn], the toxic effects result in series [1] is reported as “did not show toxic effects”. In series [2] (arterial blood plasma, after 4 h), the “plasma activity still present as original compound” value is listed as 85%. The “metabolic stability in arterial blood plasma” value in series [2] (first 2 h) is on record as “without detectable radioactive metabolic products”. Also, in series [2] (kidney extract, 4 h), the “original compound in the kidneys” value came out at 31%. The “original compound in the urine” value in series [2] (urine, 4 h) came out at 15%. Further, the “time for which the 64Cu(II) complex is stable with EDTA” value in series [3] was “at least 24 h”. For the same compound, the half-life in series [4] (iv, i.v.) was 37 min; in series [4] (sc, s.c.) it was 51 min. The “fraction bound to plasma proteins” value in series [5] (MeCN precipitate, % of total blood activity) is 5 ± 3%. Moreover, the “fraction in blood plasma” value in series [5] (centrifugation 3 min at 14,000 x g) is 82 ± 4 % of the whole blood ^64Cu activity. In series [5] (supernatant after MeCN precipitation, % of total blood activity), the “fraction in plasma water” value was determined as 75 ± 3%.
